Results from patent US20210198347A1 (Chugai, published 2021).
Numbering of substitutions follows the chain as printed.

B1: COR0208cc-SG1148 (antibody, human IgG1, kappa, V domains shown)
VH: QSVEESGGRLVTPGTPLTLTCTVSGFSLSNYYMNWVRQAPGKGLEWIGIIASDDNTWYASWAKGRFTISKTSTTVDLKITSPTTEDTATYFCARDLDVGYGSGWYDLWGQGTLVTVSS
VL: AAVLTQTPSPVSVAVGGTVTINCQASQSVYNNNYLAWYQQEPGHRPKLLIYRASKLASGVPSRFSGSGSGTQFTLTISGVQCDDAATYYCLGGYDDFTDTTFGGGTKVEIKR
notes: Anti-C1r antibody; also called COR208; COR208cc(-SG1148)
B2: COR0067ff-SG1148 (antibody, human IgG1, kappa, V domains shown)
VH: QSLEESGGGLVQPEGSLTLTCKASGIDFSSNAMCWVRQAPGKGLEWIGCIYTGSTTIWYASWAKGRFTISKTSSTTVTLQLNSLTVADTATYFCARRDSSSGYAFKLWGPGTLVTVSS
VL: DIVMTQTPSSVSAAVGGTVTIKCQASENIYSNLAWYQQKSGQPPNLLIYGASTLESGVPSRFKGSGSGTEFTLTISDLECADAAIYYCQCTYDDSSTFGGGTKVEIKR
notes: Anti-C1r antibody
B3: COR0338gg-SG1148 (antibody, human IgG1, kappa, V domains shown)
VH: B2 VH with G48A, S61T, D98A
VL: B2 VL with I2V, S9F, N28S, S40P, A81D
notes: Anti-C1r antibody
B4: COR0205gg-SG1148 (antibody, human IgG1, kappa, V domains shown)
VH: QSLEESGGGLFKPTDTLTLTCTVSGFSLSSNAMSWVRQAPGKGLEYIGIIYLTGVTYYATWAKGRFTISKTSTTVDLKITSPTTEDTATYFCAGGEFSLWGPGTLVTVSS
VL: DIIMTQTPASVEAAVGGTVTIKCQASQGIDNYFSWHQQKPGQPPKLLIYKASTLASGVSSRFKGSGSGTEFTLTISDLECDDAATYYCQCTYGYNINDNYGNAFGGGTKVEIKR
notes: Anti-C1r antibody; also called COR205gg(-SG1148)
B5: COR0011bb-SG1148 (antibody, human IgG1, kappa, V domains shown)
VH: QSLEESGGRLVTPGTPLTLTCTASGFTFSGYYMCWVRQTPGKGLEYIGIIASSGNTYYANWAKGRFTISKTSSTTVDLKMTSLTTEDTATYFCAKPESDYVNGMGLWGPGTLVTVSS
VL: DIVMTQTPASVSDPVGGTVTIKCQASQSIYNLLSWYQQKPGQRPKLLIYDASKLASGVPSRFKGSGYGTDFTLTISDLGCADAATYYCQSNYGYSRTDDTFFYGFGGGTKVEIKR
notes: Anti-C1r antibody
B6: COR0058bb-SG1148 (antibody, human IgG1, kappa, V domains shown)
VH: QSVEESGGRLVTPGTPLTLTCTASGFDISNYNMQWVRQSPGKGLEWIGIIWSGGYTDYANWAKGRFTISATSTTVDLKSTSPTTEDTATYFCARQGANFGDYTVDLWGPGTLVTVSS
VL: AYDMTQTPASVEVAVGGTVTIKCQASQSIRSSLAWYQQKPGQRPKLLIYRASTLASGVSSRFKGSGSGTQFTLTISGVECADAATYYCQQGYSNINVDNTFGGGTKVEIKR
notes: Anti-C1r antibody
B7: COR0212bb-SG1148 (antibody, human IgG1, kappa, V domains shown)
VH: QEQLKESGGGLVTPGGTLTLTCTASGFSLSSYDMSWVRQAPGKGLDWIGIINTGGSAYYATWAKGRFTISKTSTTVDLKITSPTTEDTATYFCGRKINDAFDPWGPGTLVTVSS
VL: AQVLTQTPFSVSAAVGGTVTINCQASESISSNLAWYQQKPGQPPKLLIYDASDLASGVPSRFKGSGSGKQFTLTISGVQCDDAATYFCQHGWIYDTIDSNCFGGGTKVEIKR
notes: Anti-C1r antibody
B8: COR0278bb-SG1148 (antibody, human IgG1, kappa, V domains shown)
VH: QSLEESGGRLVTPGTPLTLTCTASGFSLSSYDMTWVRQAPGKGLEWIGIIYTLGSAYYASWAKGRFTISRTSTTVDLKMTSPTTEDTATYFCARGGDSYGAVDTAFDLWGPGTLVTVSS
VL: AQVLTQTPSPVSAAVGGTVTISCQSSPSVYSNYLSWYQQKPGQPPKLLIYRASRLASGVPSRFKGSGSGTQFTLTISEVQCDDAATYYCQGYFGNGINAFGGGTKVEIKR
notes: Anti-C1r antibody

Target: T1, recombinant human C1r CCP1-CCP2-SP-FLAG (human, UniProt P00736 307-705)
T1 construct: Truncated protein lacking the CUB1-EGF-CUB2 domain of C1r; also called human C1r CCP1-CCP2-SP I307-D705
T1 chain: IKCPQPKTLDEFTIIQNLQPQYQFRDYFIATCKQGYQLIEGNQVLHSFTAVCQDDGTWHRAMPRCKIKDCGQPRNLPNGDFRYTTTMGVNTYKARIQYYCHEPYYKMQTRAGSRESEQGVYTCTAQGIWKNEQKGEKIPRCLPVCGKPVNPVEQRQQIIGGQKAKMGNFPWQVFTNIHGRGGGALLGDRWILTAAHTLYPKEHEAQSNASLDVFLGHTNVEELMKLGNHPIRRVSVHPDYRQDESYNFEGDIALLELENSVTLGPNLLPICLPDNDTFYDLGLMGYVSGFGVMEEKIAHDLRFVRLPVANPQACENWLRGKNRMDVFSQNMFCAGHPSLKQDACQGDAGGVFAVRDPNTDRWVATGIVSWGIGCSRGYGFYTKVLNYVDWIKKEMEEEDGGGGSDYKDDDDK
Experiment: SPR (BIACORE T200, 37 degrees C, pH 7.4, 1.2 mM CaCl2), antibody captured by protein A/G

Does B1 bind?
Result: no binding (tested: 50 nM)

Does B2 bind?
Result: no binding (tested: 50 nM)

Does B3 bind?
Result: no binding (tested: 50 nM)

Does B4 bind?
Result: no binding (tested: 50 nM)

Does B5 bind?
Result: no binding (tested: 50 nM)

Does B6 bind?
Result: no binding (tested: 50 nM)

Does B7 bind?
Result: no binding (tested: 50 nM)

Does B8 bind?
Result: no binding (tested: 50 nM)

Target: T2, recombinant human C1r2s2 Flag/His tetramer (human, UniProt P09871 16-688; P00736 18-705)
T2 construct: whole entries named; also called hc1r2s2; rC1r2s2
T2 chain 1: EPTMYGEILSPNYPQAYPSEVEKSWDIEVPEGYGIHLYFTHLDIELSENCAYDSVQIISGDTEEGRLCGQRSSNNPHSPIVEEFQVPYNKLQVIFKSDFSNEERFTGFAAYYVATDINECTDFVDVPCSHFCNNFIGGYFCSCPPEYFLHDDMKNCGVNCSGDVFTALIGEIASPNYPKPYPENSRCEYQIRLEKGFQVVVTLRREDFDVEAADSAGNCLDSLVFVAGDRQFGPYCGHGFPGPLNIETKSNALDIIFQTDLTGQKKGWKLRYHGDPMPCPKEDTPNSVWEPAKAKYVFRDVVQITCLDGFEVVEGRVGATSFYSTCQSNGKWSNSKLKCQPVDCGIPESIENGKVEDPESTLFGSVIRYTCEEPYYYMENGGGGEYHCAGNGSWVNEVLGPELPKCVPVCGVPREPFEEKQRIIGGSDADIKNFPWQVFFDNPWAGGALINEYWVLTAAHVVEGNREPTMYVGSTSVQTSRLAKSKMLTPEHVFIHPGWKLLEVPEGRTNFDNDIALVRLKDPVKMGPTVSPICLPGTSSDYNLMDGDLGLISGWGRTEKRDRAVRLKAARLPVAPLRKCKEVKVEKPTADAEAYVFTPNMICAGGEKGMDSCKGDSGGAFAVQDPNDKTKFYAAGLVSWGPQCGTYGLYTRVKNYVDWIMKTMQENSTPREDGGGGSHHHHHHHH
T2 chain 2: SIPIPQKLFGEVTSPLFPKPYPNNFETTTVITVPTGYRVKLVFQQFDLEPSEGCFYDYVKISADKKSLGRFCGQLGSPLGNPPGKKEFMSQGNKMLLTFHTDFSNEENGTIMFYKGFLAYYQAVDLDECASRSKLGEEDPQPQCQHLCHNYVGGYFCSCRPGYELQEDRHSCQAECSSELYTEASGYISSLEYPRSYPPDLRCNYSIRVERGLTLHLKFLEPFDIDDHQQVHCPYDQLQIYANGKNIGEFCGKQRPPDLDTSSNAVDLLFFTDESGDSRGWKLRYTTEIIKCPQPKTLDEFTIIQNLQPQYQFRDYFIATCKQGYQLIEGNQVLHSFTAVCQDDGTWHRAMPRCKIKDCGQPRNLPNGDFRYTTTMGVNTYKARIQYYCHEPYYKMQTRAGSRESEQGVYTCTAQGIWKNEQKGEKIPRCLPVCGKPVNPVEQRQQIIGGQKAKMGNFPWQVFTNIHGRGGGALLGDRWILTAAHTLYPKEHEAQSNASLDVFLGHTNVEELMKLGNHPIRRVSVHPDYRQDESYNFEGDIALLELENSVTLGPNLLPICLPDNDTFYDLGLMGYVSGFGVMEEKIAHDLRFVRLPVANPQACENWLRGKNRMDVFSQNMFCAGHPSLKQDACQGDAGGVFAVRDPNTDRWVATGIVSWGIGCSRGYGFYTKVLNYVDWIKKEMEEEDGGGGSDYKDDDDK
Experiment: SPR displacement (37 degrees C, pH 7.4): C1r2s2 captured by anti-His, C1q 100 nM pre-bound, antibody 500 nM at 10 micro L/min; time from antibody injection until the antibody sensorgram falls below the buffer sensorgram; competitor native human C1q
Description: An anti-His antibody (GE-Healthcare) is immobilized onto all flow cells of a CM4 sensor chip using an amine coupling kit (GE Healthcare). The antibodies, recombinant human C1r2s2 Flag/His tetramer and native human C1q (Comptech A099) are prepared in pH 7.4 buffer (20 mM ACES, 150 mM NaCl, 1.2 mM CaCl₂, 1 mg/mL BSA (IgG-free), 1 mg/mL CMD, 0.05% Tween 20, 0.005% NaN₃, pH 7.4). Recombinant human C1r2s2 Flag/His tetramer is first captured onto the sensor surface by the anti-His antibody (“hc1r2s2”). The capture levels are aimed at 200 resonance unit (RU). Native human C1q is injected at 100 nM to have a capture of 200 RU (“hc1q”), followed by antibody injection at 500 nM at 10 micro L/min for 1200 sec immediately. The sensor surface is regenerated each cycle with 10 mM Glycine-HCl (pH 1.5). For antibodies with the C1q displacement function, the response unit of Sensorgram 2 (in the presence of C1r2s2, C1q, and antibody) is lower than the response unit in Sensorgram 1 (in the presence of C1r2s2, C1q, and buffer, but in the absence of antibody) after the time point where Sensorgrams 1 and 2 cross (“time point of crossover”).
The time point of crossover is identified by subtraction of the buffer response (Sensorgram 1) from the antibody (Ab) response (Sensorgram 2), and referring to the time point when the differential value changes from positive to negative (Table 5).

For B1, which “Time point of crossover (post-injection)” value is on record?
The value was 197 s.

With B2 as the binder, how does the “Time point of crossover (post-injection)” value read?
Its value is 85 s.

For B3, which “Time point of crossover (post-injection)” value is on record?
The value was 101 s.

For B4, which “Time point of crossover (post-injection)” value is on record?
Its value is 216 s.

With B5 as the binder, how does the “Time point of crossover (post-injection)” value read?
The value was 613 s.

How did the “Time point of crossover (post-injection)” value turn out when B6 was run?
Its value is 235 s.

For B7, which “Time point of crossover (post-injection)” value is on record?
The value was 432 s.

How did the “Time point of crossover (post-injection)” value turn out when B8 was run?
The value was 218 s.
